One assay has as its target human GLP-1 receptor (human, UniProt P43220 24-463). As to the kind of experiment: cell-based or functional assay.
For another assay, the target named is human glucagon receptor (human, UniProt P47871 26-477). Put plainly: cell-based or functional assay.

These results are taken from patent US20230357348A1 (AstraZeneca / MedImmune, published 2023).

Starred links: 1 amine or outer side, 2 acyl side, 3 side chain; linkers in the order of their positions; H or OH if unused. Non-standard residues stand in square brackets, D forms with d. Groups on a side chain read outwards from the residue. No end group written: not given here. *: point of attachment. β‑dimethylGln = β-dimethylglutamine, CC(C)(CC(N)=O)[C@H](N[*:1])C(=O)[*:2]; C20 diacid = O=C(O)CCCCCCCCCCCCCCCCCCC(=O)*; C18 diacid = O=C(O)CCCCCCCCCCCCCCCCC(=O)*; γGlu = O=C(O)[C@H](CCC(=O)[*:2])N[*:1]; αMeF = C[C@](N)(Cc1ccccc1)C(=O)O; NMeQ = CN[C@@H](CCC(N)=O)C(=O)O; AEEA = NCCOCCOCC(=O)O; Aib = CC(C)(N)C(=O)O A value given as a limit tells only on which side of the number the result lay.

human glucagon receptor, sequence (P47871 26-477): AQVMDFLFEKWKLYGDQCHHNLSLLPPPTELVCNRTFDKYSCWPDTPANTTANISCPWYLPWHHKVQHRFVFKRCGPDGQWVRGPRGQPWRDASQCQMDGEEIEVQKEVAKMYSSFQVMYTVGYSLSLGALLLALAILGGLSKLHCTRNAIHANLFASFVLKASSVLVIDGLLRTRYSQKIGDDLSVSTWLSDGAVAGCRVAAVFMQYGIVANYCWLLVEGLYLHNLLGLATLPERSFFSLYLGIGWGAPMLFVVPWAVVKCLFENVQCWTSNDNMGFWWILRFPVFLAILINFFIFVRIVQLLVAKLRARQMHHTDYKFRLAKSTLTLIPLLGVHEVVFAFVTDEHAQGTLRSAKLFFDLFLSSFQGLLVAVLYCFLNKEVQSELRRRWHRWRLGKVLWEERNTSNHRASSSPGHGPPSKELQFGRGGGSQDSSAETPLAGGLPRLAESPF

Take H[Aib]HGS[αMeF]TSDVSK[αMeF]LDSRAAK([AEEA-AEEA-γGlu-C18 diacid])DFVQ[Aib]IANT-NH2 (not fully specified; also: Y13: αMePhe per table) [Peptide 287]: the “hGLP-1R EC50 (pM), cAMP” value in the assay with human GLP-1 receptor is 27.5 pM. The “hGluc-R EC50 (pM), cAMP” value with human glucagon receptor was 26.5 pM.
For H[Aib]HGS[αMeF]TSDVSK[αMeF]LDSRAAK([AEEA-AEEA-γGlu-γGlu-C20 diacid])D[αMeF]VQ[Aib]IANT-OH [Peptide 304], in the assay with human GLP-1 receptor, the “hGLP-1R EC50 (pM), cAMP” value is 239 pM. Besides, the “hGluc-R EC50 (pM), cAMP” value with human glucagon receptor was determined as 687 pM.
H[Aib]HGS[αMeF]TSDVSK[αMeF]LDSRAAK([AEEA-AEEA-γGlu-C18 diacid])D[αMeF]VQWIANT-NH2 (not fully specified; also: F22: αMePhe per table) [Peptide 288]: the “hGLP-1R EC50 (pM), cAMP” value with human GLP-1 receptor stood at 42.7 pM. In the assay with human glucagon receptor, the “hGluc-R EC50 (pM), cAMP” value is 26.9 pM.

B1: Peptide 300 (peptide)
peptide: H[Aib]HGS[αMeF]TSDVSK[αMeF]LDSRAAK([AEEA-AEEA-γGlu-C18 diacid])D[αMeF]VQ[Aib]IAET-NH2
modifications: N-terminus assumed
SMILES: CC[C@H](C)[C@H](NC(=O)C(C)(C)NC(=O)[C@H](CCC(N)=O)NC(=O)[C@@H](NC(=O)[C@](C)(Cc1ccccc1)NC(=O)[C@H](CC(=O)O)NC(=O)[C@H](CCCCNC(=O)COCCOCCNC(=O)COCCOCCNC(=O)CC[C@H](NC(=O)CCCCCCCCCCCCCCCCC(=O)O)C(=O)O)NC(=O)[C@H](C)NC(=O)[C@H](C)NC(=O)[C@H](CCCNC(=N)N)NC(=O)[C@H](CO)NC(=O)[C@H](CC(=O)O)NC(=O)[C@H](CC(C)C)NC(=O)[C@](C)(Cc1ccccc1)NC(=O)[C@H](CCCCN)NC(=O)[C@H](CO)NC(=O)[C@@H](NC(=O)[C@H](CC(=O)O)NC(=O)[C@H](CO)NC(=O)[C@@H](NC(=O)[C@](C)(Cc1ccccc1)NC(=O)[C@H](CO)NC(=O)CNC(=O)[C@H](Cc1c[nH]cn1)NC(=O)C(C)(C)NC(=O)[C@@H](N)Cc1c[nH]cn1)[C@@H](C)O)C(C)C)C(C)C)C(=O)N[C@@H](C)C(=O)N[C@@H](CCC(=O)O)C(=O)N[C@H](C(N)=O)[C@@H](C)O
Consider B1, for which the “hGLP-1R EC50 (pM), cAMP” value with human GLP-1 receptor came to 19.7 pM. Further, the “hGluc-R EC50 (pM), cAMP” value with human glucagon receptor was found to be 18.4 pM.
Turning to H[Aib]QGS[αMeF]TSDVSK[αMeF]LDSRAAK([AEEA-AEEA-γGlu-γGlu-C20 diacid])D[αMeF]VQ[Aib]IANT-NH2 [Peptide 322], the “hGLP-1R EC50 (pM), cAMP” value with human GLP-1 receptor worked out at 68.3 pM. Further, in the assay with human glucagon receptor, the “hGluc-R EC50 (pM), cAMP” value was over 24700 pM.
On to H[Aib]HGS[αMeF]TSDVSK[αMeF]LDSRAAK([AEEA-AEEA-γGlu-γGlu-C20 diacid])D[αMeF]VQ[Aib]IANT-NH2 (not fully specified) [Peptide 305], for which the “hGLP-1R EC50 (pM), cAMP” value with human GLP-1 receptor turned out to be 211 pM. The “hGluc-R EC50 (pM), cAMP” value in the assay with human glucagon receptor is 155 pM.

B2: Peptide 325 (peptide)
peptide: HS[NMeQ]GS[αMeF]TSDVSK[αMeF]LDSRAAK([AEEA-AEEA-γGlu-C18 diacid])D[αMeF]VQ[Aib]IANT-NH2
modifications: N-terminus assumed
SMILES: CC[C@H](C)[C@H](NC(=O)C(C)(C)NC(=O)[C@H](CCC(N)=O)NC(=O)[C@@H](NC(=O)[C@](C)(Cc1ccccc1)NC(=O)[C@H](CC(=O)O)NC(=O)[C@H](CCCCNC(=O)COCCOCCNC(=O)COCCOCCNC(=O)CC[C@H](NC(=O)CCCCCCCCCCCCCCCCC(=O)O)C(=O)O)NC(=O)[C@H](C)NC(=O)[C@H](C)NC(=O)[C@H](CCCNC(=N)N)NC(=O)[C@H](CO)NC(=O)[C@H](CC(=O)O)NC(=O)[C@H](CC(C)C)NC(=O)[C@](C)(Cc1ccccc1)NC(=O)[C@H](CCCCN)NC(=O)[C@H](CO)NC(=O)[C@@H](NC(=O)[C@H](CC(=O)O)NC(=O)[C@H](CO)NC(=O)[C@@H](NC(=O)[C@](C)(Cc1ccccc1)NC(=O)[C@H](CO)NC(=O)CNC(=O)[C@H](CCC(N)=O)N(C)C(=O)[C@H](CO)NC(=O)[C@@H](N)Cc1c[nH]cn1)[C@@H](C)O)C(C)C)C(C)C)C(=O)N[C@@H](C)C(=O)N[C@@H](CC(N)=O)C(=O)N[C@H](C(N)=O)[C@@H](C)O
For B2, the “hGLP-1R EC50 (pM), cAMP” value in the assay with human GLP-1 receptor is 929 pM. For the same molecule, the “hGluc-R EC50 (pM), cAMP” value in the assay with human glucagon receptor was over 25500 pM.
As to H[Aib]HGS[αMeF]TSDVSKYLDSRAAKDFVQWIANT-NH2 (not fully specified (residue 20); also: F6: αMePhe per table) [Peptide 292], in the assay with human GLP-1 receptor, the “hGLP-1R EC50 (pM), cAMP” value is 28.7 pM. Further, the “hGluc-R EC50 (pM), cAMP” value in the assay with human glucagon receptor was determined as 20.4 pM.

B3: Peptide 324 (peptide)
peptide: HS[β‑dimethylGln]GS[αMeF]TSDVSK[αMeF]LDSRAAK([AEEA-AEEA-γGlu-C18 diacid])D[αMeF]VQ[Aib]IANT-NH2
modifications: N-terminus assumed
SMILES: CC[C@H](C)[C@H](NC(=O)C(C)(C)NC(=O)[C@H](CCC(N)=O)NC(=O)[C@@H](NC(=O)[C@](C)(Cc1ccccc1)NC(=O)[C@H](CC(=O)O)NC(=O)[C@H](CCCCNC(=O)COCCOCCNC(=O)COCCOCCNC(=O)CC[C@H](NC(=O)CCCCCCCCCCCCCCCCC(=O)O)C(=O)O)NC(=O)[C@H](C)NC(=O)[C@H](C)NC(=O)[C@H](CCCNC(=N)N)NC(=O)[C@H](CO)NC(=O)[C@H](CC(=O)O)NC(=O)[C@H](CC(C)C)NC(=O)[C@](C)(Cc1ccccc1)NC(=O)[C@H](CCCCN)NC(=O)[C@H](CO)NC(=O)[C@@H](NC(=O)[C@H](CC(=O)O)NC(=O)[C@H](CO)NC(=O)[C@@H](NC(=O)[C@](C)(Cc1ccccc1)NC(=O)[C@H](CO)NC(=O)CNC(=O)[C@@H](NC(=O)[C@H](CO)NC(=O)[C@@H](N)Cc1c[nH]cn1)C(C)(C)CC(N)=O)[C@@H](C)O)C(C)C)C(C)C)C(=O)N[C@@H](C)C(=O)N[C@@H](CC(N)=O)C(=O)N[C@H](C(N)=O)[C@@H](C)O
As for B3, the “hGLP-1R EC50 (pM), cAMP” value with human GLP-1 receptor came to 1330 pM. Also, the “hGluc-R EC50 (pM), cAMP” value with human glucagon receptor came to 1930 pM.
For the molecule H[Aib]QGTFTSDVSK[αMeF]LDSRAAK([AEEA-AEEA-γGlu-C18 diacid])DFVQ[Aib]LVAT-NH2 (not fully specified) [Peptide 315], in the assay with human GLP-1 receptor, the “hGLP-1R EC50 (pM), cAMP” value amounted to 18.1 pM. Further, in the assay with human glucagon receptor, the “hGluc-R EC50 (pM), cAMP” value was 5850 pM.
Take H[Aib]QGTFTSDVSK[αMeF]LDSRAAK([AEEA-AEEA-γGlu-C18 diacid])DFVQWIANT-NH2 (not fully specified) [Peptide 318]: the “hGLP-1R EC50 (pM), cAMP” value in the assay with human GLP-1 receptor is 55.2 pM. Besides, in the assay with human glucagon receptor, the “hGluc-R EC50 (pM), cAMP” value is 12000 pM.

B4: Peptide 296 (peptide)
peptide: H[Aib]HGS[αMeF]TSDVSK[Aib]LDSRAAK([AEEA-AEEA-γGlu-C18 diacid])D[αMeF]VQ[Aib]IANT-NH2
modifications: N-terminus assumed
SMILES: CC[C@H](C)[C@H](NC(=O)C(C)(C)NC(=O)[C@H](CCC(N)=O)NC(=O)[C@@H](NC(=O)[C@](C)(Cc1ccccc1)NC(=O)[C@H](CC(=O)O)NC(=O)[C@H](CCCCNC(=O)COCCOCCNC(=O)COCCOCCNC(=O)CC[C@H](NC(=O)CCCCCCCCCCCCCCCCC(=O)O)C(=O)O)NC(=O)[C@H](C)NC(=O)[C@H](C)NC(=O)[C@H](CCCNC(=N)N)NC(=O)[C@H](CO)NC(=O)[C@H](CC(=O)O)NC(=O)[C@H](CC(C)C)NC(=O)C(C)(C)NC(=O)[C@H](CCCCN)NC(=O)[C@H](CO)NC(=O)[C@@H](NC(=O)[C@H](CC(=O)O)NC(=O)[C@H](CO)NC(=O)[C@@H](NC(=O)[C@](C)(Cc1ccccc1)NC(=O)[C@H](CO)NC(=O)CNC(=O)[C@H](Cc1c[nH]cn1)NC(=O)C(C)(C)NC(=O)[C@@H](N)Cc1c[nH]cn1)[C@@H](C)O)C(C)C)C(C)C)C(=O)N[C@@H](C)C(=O)N[C@@H](CC(N)=O)C(=O)N[C@H](C(N)=O)[C@@H](C)O
B4: the “hGLP-1R EC50 (pM), cAMP” value with human GLP-1 receptor stood at 64.1 pM. Moreover, the “hGluc-R EC50 (pM), cAMP” value in the assay with human glucagon receptor stood at 3250 pM.
In the case of H[Aib]HGS[αMeF]TSDVSK[αMeF]LDSRAAK([AEEA-AEEA-γGlu-γGlu-C20 diacid])D[αMeF]IA[Aib]IAET-NH2 [Peptide 302], the “hGLP-1R EC50 (pM), cAMP” value in the assay with human GLP-1 receptor is 151 pM. Further, the “hGluc-R EC50 (pM), cAMP” value in the assay with human glucagon receptor turned out to be 271 pM.

B5: Peptide 298 (peptide)
peptide: H[Aib]HGS[αMeF]TSDVSR[αMeF]LDSRAAK([AEEA-AEEA-γGlu-γGlu-C20 diacid])D[αMeF]VQ[Aib]IANT-NH2
modifications: N-terminus assumed
SMILES: CC[C@H](C)[C@H](NC(=O)C(C)(C)NC(=O)[C@H](CCC(N)=O)NC(=O)[C@@H](NC(=O)[C@](C)(Cc1ccccc1)NC(=O)[C@H](CC(=O)O)NC(=O)[C@H](CCCCNC(=O)COCCOCCNC(=O)COCCOCCNC(=O)CC[C@H](NC(=O)CC[C@H](NC(=O)CCCCCCCCCCCCCCCCCCC(=O)O)C(=O)O)C(=O)O)NC(=O)[C@H](C)NC(=O)[C@H](C)NC(=O)[C@H](CCCNC(=N)N)NC(=O)[C@H](CO)NC(=O)[C@H](CC(=O)O)NC(=O)[C@H](CC(C)C)NC(=O)[C@](C)(Cc1ccccc1)NC(=O)[C@H](CCCNC(=N)N)NC(=O)[C@H](CO)NC(=O)[C@@H](NC(=O)[C@H](CC(=O)O)NC(=O)[C@H](CO)NC(=O)[C@@H](NC(=O)[C@](C)(Cc1ccccc1)NC(=O)[C@H](CO)NC(=O)CNC(=O)[C@H](Cc1c[nH]cn1)NC(=O)C(C)(C)NC(=O)[C@@H](N)Cc1c[nH]cn1)[C@@H](C)O)C(C)C)C(C)C)C(=O)N[C@@H](C)C(=O)N[C@@H](CC(N)=O)C(=O)N[C@H](C(N)=O)[C@@H](C)O
For B5, the “hGLP-1R EC50 (pM), cAMP” value with human GLP-1 receptor is 75.5 pM. For the same molecule, the “hGluc-R EC50 (pM), cAMP” value with human glucagon receptor is 573 pM.
